Results as given in the supplement of paper PMC9732359.
± gives the uncertainty stated by the source.

Experiment: protein stability index of a GFP-peptide fusion (yeast GPS) (PSI 1-4); higher = more stable; sorted into four equal gates, so the index is relative within each strain
Procedure, shortened: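 For each peptide, the protein stability index sums the read frequency in every gate after multiplying it by the gate number. Read frequencies came from plasmids that were PCR-amplified from each gate and Illumina-sequenced, with reads assigned to strains by barcodes. The gates were four equal bins of GFP/Cherry fluorescence ratio applied to mid-log yeast in leucine-free medium carrying a pooled library of tiled 17-residue yeast protein peptides fused downstream of GFP on a Cherry-expressing plasmid.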

Sequence	protein stability index (doa10∆)	protein stability index (pdr5∆)	protein stability index (san1∆)	protein stability index (ubr1∆)
VKVLAATNRVDVLDPAL [RPT5]	3.08 ± 0.099	2.84 ± 0.1	3.02 ± 0.075	2.89 ± 0.071
KRKKEANEEPNTENVES [ITC1]	3.1 ± 0.062	2.74 ± 0.046	2.78 ± 0.07	2.65 ± 0.034
TFRRRNPYNTRSNKIKV [RPL34A]	1.43 ± 0.04	1.81 ± 0.045	1.67 ± 0.066	1.9 ± 0.04
FHAEPSGTFYRYNAKAI [PUP2]	2.79 ± 0.15	1.81 ± 0.13	2.87 ± 0.059	1.67 ± 0.077
LSLTAFTKNEEKLLKEL [ITC1]	2.24 ± 0.081	2.29 ± 0.072	2.29 ± 0.08	2.44 ± 0.26
ARIIRSELLARDIFQED [RGR1]	2.26 ± 0.11	2.4 ± 0.087	2.14 ± 0.12	2.19 ± 0.096
KLHVAAKLPGHKSLIRS [YGL100W/SEH1]	1.83 ± 0.11	2.03 ± 0.13	–	2.33 ± 0.094
LSNSNRFELHGDMTNSD [REC8]	2.82 ± 0.14	3.13 ± 0.16	2.58 ± 0.14	2.7 ± 0.2
YNEFLYSKAGREELERV [QCR8]	2.86 ± 0.11	2.73 ± 0.19	3.35 ± 0.1	2.98 ± 0.1
LKGIQEFGADWYKVAKN [SWI3]	3.25 ± 0.071	3.34 ± 0.072	3.37 ± 0.043	3.34 ± 0.057
HYERTQTKENKRCVGVI [RPN8]	2.9 ± 0.12	2.69 ± 0.1	2.49 ± 0.093	2.43 ± 0.057
VLQNVFKLVSTPSSNSN [MED1]	1.44 ± 0.04	1.67 ± 0.041	1.5 ± 0.072	1.36 ± 0.038
YSSAPLRTVKEVQFGLF [RPO21]	–	2.27 ± 0.2	–	–
TNSNNTPLQSQLNLNNL [PGD1]	3.01 ± 0.071	3.01 ± 0.059	3 ± 0.043	3.05 ± 0.042
SVDITGGPWFTDGELDI [RPC34]	3.04 ± 0.14	3.43 ± 0.12	3.12 ± 0.13	3.18 ± 0.078
IPLNRLSLDSDVKFPSN [SMC3]	1.69 ± 0.059	1.92 ± 0.064	2.05 ± 0.11	1.99 ± 0.054
TPMDESSYDLLFNESFI [SRP72]	3.07 ± 0.1	2.98 ± 0.1	2.7 ± 0.1	3.12 ± 0.052
LELQVAQAFVELENSSP [RPS7A]	3.15 ± 0.14	3.14 ± 0.15	2.92 ± 0.19	1.85 ± 0.11
VFHAAFEGDSNMLICAP [BRR2]	2.25 ± 0.048	2.41 ± 0.042	2.33 ± 0.045	2.615 ± 0.026
PKNIEPPLTSQYSTRHD [SWI3]	3.07 ± 0.048	3.02 ± 0.059	3.04 ± 0.041	3.03 ± 0.042
EEPAKEEAPAPTPAASA [FAS2]	2.75 ± 0.14	2.82 ± 0.12	2.69 ± 0.26	2.98 ± 0.14
ILSGFHNAGPVAGAGAA [RPP1B]	3.01 ± 0.072	2.97 ± 0.061	2.74 ± 0.07	2.65 ± 0.099

Sequence	protein stability index (doa10∆)	protein stability index (pdr5∆)	protein stability index (san1∆)	protein stability index (ubr1∆)
NDTISEDILQGIFNLLN [NUT1]	2.38 ± 0.066	2.32 ± 0.057	2.13 ± 0.12	2.6 ± 0.088
MERFSVLCNSNISKSRA [RRP6]	2.42 ± 0.066	2.46 ± 0.096	1.98 ± 0.084	2.12 ± 0.056
LVDLVSHFSPDIKAAVD [ITC1]	1.95 ± 0.063	1.99 ± 0.071	2.09 ± 0.076	2.54 ± 0.05
LVADGVFYAELNEFFTR [RPS3]	3.2 ± 0.12	3.1 ± 0.12	3.08 ± 0.077	3.28 ± 0.078
IIKLVEGLANDPENKVP [RPS12]	2.01 ± 0.086	1.77 ± 0.065	2.25 ± 0.092	2.08 ± 0.09
EHKTPELISFKERTKSL [YIL149C/MLP2]	2.85 ± 0.066	2.95 ± 0.076	2.93 ± 0.076	3.22 ± 0.079
MPGGYFHSEISPDSTVN [YAR002W/NUP60]	2.56 ± 0.076	3 ± 0.095	2.54 ± 0.061	2.76 ± 0.063
GTGKSQSGSNSGNNSKK [ROX3]	3.37 ± 0.3	–	2.77 ± 0.2	–
FGATTNDDKKTEPDKPA [YJL041W/NSP1]	1.55 ± 0.098	2.48 ± 0.097	2.61 ± 0.15	2.65 ± 0.11
ESLYEPNLEPEDLFETI [PUP3]	3.27 ± 0.12	3.09 ± 0.13	2.99 ± 0.11	3.01 ± 0.078
IQSQVFESLYNSNDSVF [BRR2]	2.04 ± 0.053	2.31 ± 0.057	1.59 ± 0.097	2.09 ± 0.046
KQRLDLARQVKLLLLNT [YIL149C/MLP2]	2.56 ± 0.059	2.15 ± 0.058	1.98 ± 0.092	1.88 ± 0.034
LLVDQKQLNSLRRSGQI [SMD1]	2.57 ± 0.047	2.79 ± 0.054	2.96 ± 0.061	2.72 ± 0.051
EAEVTAEVNGGDDEATE [BRR2]	–	3.24 ± 0.12	–	2.72 ± 0.21
DESYARAYRIIRAHQTE [QCR7]	3.17 ± 0.17	3.43 ± 0.17	3.14 ± 0.22	3.41 ± 0.091
YENKDNLTAGIIVAGYD [PRE3]	2.71 ± 0.047	2.91 ± 0.05	2.98 ± 0.04	2.78 ± 0.036
GQLEDFDSELIHLKQKL [SMC3]	–	2.89 ± 0.16	3.23 ± 0.15	2.95 ± 0.17
LVKTKELIKNYITARIM [FAS1]	–	2.91 ± 0.19	3.02 ± 0.27	2.64 ± 0.073
GLIPYPHHNQSPRNTYQ [RET1]	2.58 ± 0.078	2.77 ± 0.095	2.83 ± 0.069	2.93 ± 0.069
YDVLHDVFTINPHQKDQ [YML103C/NUP188]	–	2.15 ± 0.098	2.12 ± 0.13	2.61 ± 0.25
TDRESYPRLQDPSRELN [YCS4]	3.14 ± 0.05	3.19 ± 0.043	3.23 ± 0.034	3.09 ± 0.052
